We go through 7 molecules from PMC12143597, “The low endoribonuclease activity and lack of rNMP preference of human mitochondrial topoisomerase 1 protect against ribonucleotide-dependent deletions”.

The target in series [1] is T1, scTOP1 catalytically inactive variant (Saccharomyces cerevisiae) (UniProt P04786).
T1 sequence: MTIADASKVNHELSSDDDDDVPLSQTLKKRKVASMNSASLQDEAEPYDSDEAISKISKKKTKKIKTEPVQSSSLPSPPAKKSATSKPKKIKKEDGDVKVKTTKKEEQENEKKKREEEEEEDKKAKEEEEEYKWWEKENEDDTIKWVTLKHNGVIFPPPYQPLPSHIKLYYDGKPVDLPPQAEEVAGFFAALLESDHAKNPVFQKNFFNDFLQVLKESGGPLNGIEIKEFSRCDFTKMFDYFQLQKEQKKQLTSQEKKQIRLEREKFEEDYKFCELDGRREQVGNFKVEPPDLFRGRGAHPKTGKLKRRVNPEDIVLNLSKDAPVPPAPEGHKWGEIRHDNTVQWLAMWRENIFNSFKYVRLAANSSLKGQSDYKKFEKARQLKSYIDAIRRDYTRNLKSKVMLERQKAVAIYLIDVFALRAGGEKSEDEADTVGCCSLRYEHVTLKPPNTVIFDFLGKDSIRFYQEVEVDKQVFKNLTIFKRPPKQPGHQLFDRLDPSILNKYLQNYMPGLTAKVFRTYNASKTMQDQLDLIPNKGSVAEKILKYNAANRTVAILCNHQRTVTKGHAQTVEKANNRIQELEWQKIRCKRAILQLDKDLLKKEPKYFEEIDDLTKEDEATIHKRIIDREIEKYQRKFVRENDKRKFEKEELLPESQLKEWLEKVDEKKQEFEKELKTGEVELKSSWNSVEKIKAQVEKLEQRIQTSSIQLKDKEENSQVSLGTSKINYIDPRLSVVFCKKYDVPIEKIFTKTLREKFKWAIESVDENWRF
The series is described as follows: fluorescence anisotropy. The following applies: 20 mM Tris pH 8, 66 mM NaCl, 1 mM DTT, 2% glycerol, 0.5 nM DNA, 0-60 nM TOP1, 10 min at 37 C, errors are SEM of 3-5 experiments.

Series [2] deals with T2, hTOP1MT catalytically inactive (Y955F) (Homo sapiens, UniProt Q969P6 =DIKLIDTVDLE+51-601, Y559F;internal_change).
T2 sequence: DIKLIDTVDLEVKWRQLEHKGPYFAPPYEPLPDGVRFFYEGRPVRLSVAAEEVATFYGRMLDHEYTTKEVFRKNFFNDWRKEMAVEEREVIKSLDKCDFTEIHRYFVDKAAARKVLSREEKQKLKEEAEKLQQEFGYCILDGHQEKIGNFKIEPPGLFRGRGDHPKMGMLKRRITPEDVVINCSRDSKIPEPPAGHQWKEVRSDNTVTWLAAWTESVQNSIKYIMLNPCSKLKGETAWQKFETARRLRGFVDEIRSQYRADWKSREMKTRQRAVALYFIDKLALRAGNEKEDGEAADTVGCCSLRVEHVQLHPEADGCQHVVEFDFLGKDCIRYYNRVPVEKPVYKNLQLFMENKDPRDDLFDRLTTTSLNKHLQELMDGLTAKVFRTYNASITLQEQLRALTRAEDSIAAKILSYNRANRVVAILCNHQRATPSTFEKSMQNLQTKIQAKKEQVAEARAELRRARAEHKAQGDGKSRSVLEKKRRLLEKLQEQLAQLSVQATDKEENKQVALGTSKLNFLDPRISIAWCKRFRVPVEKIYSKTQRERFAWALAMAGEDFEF
Briefly: fluorescence anisotropy; 20 mM Tris pH 8, 66 mM NaCl, 1 mM DTT, 2% glycerol, 0.5 nM DNA, 0-60 nM TOP1, 10 min at 37 C; errors are SEM of 3-5 experiments. To be noted: protein: recombinant; tags: GST tag removed by 3C protease; label: 5'-FAM on strand 1; blunt.

The target of series [3] is hTOP1 catalytically inactive variant (Homo sapiens, UniProt P11387 1-765, Y723F). Described as above. The following applies: protein: recombinant; tags: N-terminal GST tag removed by 3C protease; label: 5'-FAM on strand 1; blunt.
Sequence of hTOP1 catalytically inactive variant (P11387 whole entry Y723F): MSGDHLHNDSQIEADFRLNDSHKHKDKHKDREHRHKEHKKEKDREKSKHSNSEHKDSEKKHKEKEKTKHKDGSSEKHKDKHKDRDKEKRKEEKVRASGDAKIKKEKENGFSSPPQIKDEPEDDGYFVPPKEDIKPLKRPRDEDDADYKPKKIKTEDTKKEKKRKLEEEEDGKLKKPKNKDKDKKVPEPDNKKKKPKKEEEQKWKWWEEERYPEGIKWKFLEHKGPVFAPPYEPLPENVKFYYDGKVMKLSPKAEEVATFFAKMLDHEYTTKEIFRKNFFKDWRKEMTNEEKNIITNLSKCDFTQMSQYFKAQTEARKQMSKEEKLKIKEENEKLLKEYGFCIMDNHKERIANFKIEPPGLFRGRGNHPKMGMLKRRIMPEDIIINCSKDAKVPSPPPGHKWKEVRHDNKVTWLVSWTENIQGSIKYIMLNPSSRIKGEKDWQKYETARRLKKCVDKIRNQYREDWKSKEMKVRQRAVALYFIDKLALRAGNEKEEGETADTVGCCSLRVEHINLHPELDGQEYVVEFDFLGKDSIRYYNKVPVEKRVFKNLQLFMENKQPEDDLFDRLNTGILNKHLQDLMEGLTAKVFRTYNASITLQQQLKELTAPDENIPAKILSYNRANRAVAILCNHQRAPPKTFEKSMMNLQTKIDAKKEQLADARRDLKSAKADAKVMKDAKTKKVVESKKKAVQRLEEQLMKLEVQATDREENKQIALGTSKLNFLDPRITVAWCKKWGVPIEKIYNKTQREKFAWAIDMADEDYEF

As for “AGCGTTGAAGATATGTGGCAAAACCTTTGT (double strand) [Substrate A]”, in series [1], the Kd is 4.6 nM.

For “ACTCGTCACGAGAGAGATGCCACGGTATTTCAAA (double strand) [Substrate D (rG upstream of cleavage site)]”, in series [1] (single ribonucleotide rG at position 16 of strand 1, all else DNA), the dissociation constant (Kd) amounted to 6 nM.

“AGCGTTGAAGAUATGTGGCAAAACCTTTGT / ACAAAGGTTTTGCCACATATCTTCAACGCT [Substrate B (rU at cleavage site)]”: the Kd in series [1] (single ribonucleotide rU at position 12 of strand 1, all else DNA) came to 5.5 nM.

The molecule “ACTCGTCACGAGAGAGATGCCACGGTATTTCAAA (double strand) [Substrate C]” had a Kd in series [1] of 6.6 nM.

B1: Substrate A (dsDNA)
DNA 1: AGCGTTGAAGATATGTGGCAAAACCTTTGT
DNA 2: ACAAAGGTTTTGCCACATATCTTCAACGCT
Take B1: the dissociation constant (Kd) in series [2] came out at 8.3 ± 0.59 nM; in series [3], 0.97 ± 0.06 nM.

B2: Substrate D (rG upstream of cleavage site) (dsDNA)
DNA 1: ACTCGTCACGAGAGAGATGCCACGGTATTTCAAA
DNA 2: TTTGAAATACCGTGGCATCTCTCTCGTGACGAGT
modifications: single ribonucleotide rG at position 16 of strand 1; all else DNA
For the molecule B2, the results for the dissociation constant (Kd) in series [2] and in series [3] were 4.6 ± 0.37 nM and 1.2 ± 0.09 nM, respectively.

B3: Substrate C (dsDNA)
DNA 1: B2 DNA 1
DNA 2: B2 DNA 2
As to B3, the Kd in series [2] was 4.7 ± 0.83 nM; in series [3] it was 1.8 ± 0.05 nM.

For orientation: Kd means the concentration at which binding is half-saturated.
